Reference: paper PMC2821528 (Molecular Microbiology, 2009)
Like-named read-outs stand apart in the source and are kept apart here.

Experiments:
TolB (Escherichia coli) [1] = biological target: TolB (Escherichia coli) (UniProt P0A855); details: cited from earlier work
TolB (Escherichia coli) [2] = biological target: TolB (Escherichia coli) (UniProt P0A855); details: cited from earlier work; remark: listed apart in the source
TolB (E. coli) [3] = biological target: TolB (E. coli) (UniProt P0A855); experiment: SPR
TolB (E. coli) [4] = biological target: TolB (E. coli) (UniProt P0A855); experiment: SPR; remark: listed apart in the source
Pal (Escherichia coli) = Pal (Escherichia coli) (UniProt P0A912); details: cited from earlier work
TolB = TolB (E. coli, UniProt P0A855 22-430); experiment: SEC

With Colicin E9 (from UniProt P09883) as the molecule, how does the Kd (TolB (Escherichia coli) [1]) read?
The Kd was 1000 nM.

And the Kd (TolB (Escherichia coli) [2])?
The Kd was 90 nM.

What does the source list for “TA_(1–107), 107-residue peptide of the translocation domain of colicin A (domain or fragment)”?
Kd (TolB (E. coli) [3]): 1600 nM; Kd (TolB (E. coli) [4]): 24300 nM

Which Kd (Pal (Escherichia coli)) does the source give for TolB (from UniProt P0A855) here?
Its Kd is 90 nM.

B1: Pal, soluble periplasmic domain (residues 65–173) (domain or fragment, E. coli, UniProt P0A912 65-173, looked up)
chain: LQQNNIVYFDLDKYDIRSDFAQMLDAHANFLRSNPSYKVTVEGHADERGTPEYNISLGERRANAVKMYLQGKGVSADQISIVSYGKEKPAVLGHDEAAYSKNRRAVLVY
Does B1 bind (TolB)?
Result: binds
